For one test, the target named is Macaca CD27-Fc (Macaca). As to the kind of experiment: BLI (Octet RED96), 1:1 Langmuir fit; format for IgG not described. (In general: Biolayer interferometry detects binding as a change in optical thickness at a sensor tip.)
Another test addresses T1, Human CD27-His (human, UniProt P26842 21-192).
T1 construct: also called CD27-His (Sino Biological #10039-H08B1); not shown: His tag
T1 sequence (looked up): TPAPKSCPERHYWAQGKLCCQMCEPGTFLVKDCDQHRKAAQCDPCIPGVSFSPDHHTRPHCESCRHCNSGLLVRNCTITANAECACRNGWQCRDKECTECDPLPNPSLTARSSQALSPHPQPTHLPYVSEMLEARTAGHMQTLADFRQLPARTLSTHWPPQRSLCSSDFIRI
The description is as above.

Test [1] has as its target T2, Human CD27-HisFc (human, UniProt P26842 21-192).
T2 construct: Bought reagent; also called CD27-HisFc (Sino Biological #10039-H03H); human CD27-HisFc fusion protein; not shown: His tag and Fc
T2 sequence (looked up): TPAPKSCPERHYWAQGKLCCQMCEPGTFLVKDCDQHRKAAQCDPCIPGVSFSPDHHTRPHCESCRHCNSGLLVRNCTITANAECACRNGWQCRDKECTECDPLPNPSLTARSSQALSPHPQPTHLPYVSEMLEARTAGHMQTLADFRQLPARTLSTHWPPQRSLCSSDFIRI
As to the kind of experiment: BLI (Octet RED96), CD27-HisFc captured on AHC sensor, Fab in solution, 1:1 Langmuir fit. An excerpt:
The antibody Fab fragment of each unique sequence with addition of histidine tag at its C-terminus was overexpressed using E. coli expression system, and then purified by Ni-NTA affinity resin. […] The collected data was processed by Data Acquisition 7.1 software and fitted to a 1:1 Langmuir model curve. The antibody mAb077 with the best binding capacity was obtained by screening for further analysis and development experiments.

Test [2] has as its target T3, human CD27-his antigen (Yiqiao Shenzhou #10039-H08H) (human, UniProt P26842 21-192).
T3 construct: Bought reagent; also called huCD27-his (Sino Biological); not shown: His tag
T3 sequence (looked up): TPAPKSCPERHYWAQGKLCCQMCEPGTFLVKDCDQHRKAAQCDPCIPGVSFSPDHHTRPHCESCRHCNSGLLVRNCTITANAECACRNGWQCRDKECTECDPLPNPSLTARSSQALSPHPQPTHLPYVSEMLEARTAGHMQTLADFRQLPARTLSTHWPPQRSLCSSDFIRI
The experiment in a line: SPR (Biacore T200), antibody captured on protein A chip, CD27-his as analyte, 1:1 Langmuir fit. An excerpt:
The protein A biosensor chip was used to affinity capture the antibody molecule to be tested, and then the human CD27-his antigen (Yiqiao Shenzhou #10039-H08H) of various gradient concentrations was flowed on the surface of the chip, and the reaction signal was detected in real time with the Biacore T200 instrument to obtain the association and dissociation curve. After the dissociation of each experimental cycle was completed, the biosensor chip was washed and regenerated with glycine-hydrochloric acid regeneration solution (pH 1.5). BIAevaluation version 4.1 and GE software were used to fit the data with a (1:1) Langmuir model, the affinity values were obtained as shown in the table below. The affinity of the mutant molecule 077N74T is slightly higher than that of the original mAb077 molecule but there is no significant difference.
On the technique in general: In SPR one partner is held on a chip, and binding of the other changes the refractive index at the surface.

The next test has as its target T4, Murine CD27-HisFc (murine, UniProt P41272 24-182, limits assumed).
T4 construct: not shown: His tag and Fc
T4 sequence (looked up): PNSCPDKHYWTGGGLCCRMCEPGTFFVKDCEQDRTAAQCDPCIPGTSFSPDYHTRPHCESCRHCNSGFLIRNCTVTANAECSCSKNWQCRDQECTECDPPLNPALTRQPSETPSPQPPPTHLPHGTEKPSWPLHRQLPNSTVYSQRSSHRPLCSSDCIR
As to the kind of experiment: BLI (Octet RED96), 1:1 Langmuir fit; format for IgG not described.

The target of test [3] is T2, Human CD27-HisFc. Described as above.

B1: 1F5-IgG (antibody, V domains shown)
VH: QVQLVESGGGVVQPGRSLRLSCAASGFTFSSYDMHWVRQAPGKGLEWVAVIWYDGSNKYYADSVKGRFTISRDNSKNTLYLQMNSLRAEDTAVYYCARGSGNWGFFDYWGQGTLVTVSS
VL: DIQMTQSPSSLSASVGDRVTITCRASQGISRWLAWYQQKPEKAPKSLIYAASSLQSGVPSRFSGSGSGTDFTLTISSLQPEDFATYYCQQYNTYPRTFGQGTKVEIK
Turning to B1, in the test with Macaca CD27-Fc, the Kd stood at 2.13 nM, the koff is 0.000243 s⁻¹ and the kon is 114000 M⁻¹ s⁻¹. Further, in the test with Human CD27-His, binding was put at a Kd of 1.39 nM, the koff came to 9.15e-05 s⁻¹ and the kon stood at 65800 M⁻¹ s⁻¹.

B2: mAb077-Fab (Fab, V domains shown)
VH: EVQLVESGGGLVQPGGSLRLSCAASGFTFSGYGIHWVRQAPGKGLEWIGWINPNRGSTKYAQKFQGRVTISRDNSKNTLYLQLNSLRAEDTAVYYCARDPGYTWYFDVWGQGTLVTVSS
VL: DIQLTQSPSSLSASVGDRVTITCRASQDISSDLAWYQQKPGKAPKLLIYAASTLQSGVPSRFSGSGSGTDFTLTISSLQPEDFATYYCQQRDAWPPTFGQGTKVEIK
notes: only the variable domains are tied to the Fab; also called mAb077 Fab fragment; mAb77
In the test with Human CD27-HisFc [1], B2 had a Kd of 4.08 nM, a koff of 0.00121 s⁻¹ and a kon of 296000 M⁻¹ s⁻¹.

B3: 077N74T (antibody, V domains shown)
VH: EVQLVESGGGLVQPGGSLRLSCAASGFTFSGYGIHWVRQAPGKGLEWIGWINPNRGSTKYAQKFQGRVTISRDTSKNTLYLQLNSLRAEDTAVYYCARDPGYTWYFDVWGQGTLVTVSS
VL: DIQLTQSPSSLSASVGDRVTITCRASQDISSDLAWYQQKPGKAPKLLIYAASTLQSGVPSRFSGSGSGTDFTLTISSLQPEDFATYYCQQRDAWPPTFGQGTKVEIKR
notes: The light chain is the same as in mAb077; also called mutant molecule 077N74T; 077N74T antibody
With B3, in test [2], binding was put at a Kd of 0.261 nM, the koff came out at 6.75e-05 s⁻¹ and the kon is 259000 M⁻¹ s⁻¹.

B4: mAb077-IgG (antibody, V domains shown)
VH: EVQLVESGGGLVQPGGSLRLSCAASGFTFSGYGIHWVRQAPGKGLEWIGWINPNRGSTKYAQKFQGRVTISRDNSKNTLYLQLNSLRAEDTAVYYCARDPGYTWYFDVWGQGTLVTVSS
VL: DIQLTQSPSSLSASVGDRVTITCRASQDISSDLAWYQQKPGKAPKLLIYAASTLQSGVPSRFSGSGSGTDFTLTISSLQPEDFATYYCQQRDAWPPTFGQGTKVEIKR
notes: also called mAb77
Regarding B4, the dissociation constant (Kd) in test [2] was determined as 0.335 nM; with Macaca CD27-Fc it was 0.562 nM; with Murine CD27-HisFc, 0.0304 nM; with Human CD27-HisFc [3] it was 0.137 nM. Moreover, the koff in test [2] came to 8.34e-05 s⁻¹; with Macaca CD27-Fc, 4.26e-05 s⁻¹; with Murine CD27-HisFc it was 1.33e-05 s⁻¹; with Human CD27-HisFc [3], 2.17e-05 s⁻¹. The kon in test [2] is 249000 M⁻¹ s⁻¹; with Macaca CD27-Fc, 75800 M⁻¹ s⁻¹; with Murine CD27-HisFc, 438000 M⁻¹ s⁻¹; with Human CD27-HisFc [3], 158000 M⁻¹ s⁻¹.

Broadly, the Kd is a measure of binding affinity in units of concentration. A low value points to higher affinity. As a reminder, the koff is the rate constant with which the complex falls apart. What is called kon is the rate constant with which the complex forms. A higher kon goes with fast association.

The values are drawn from patent US20210009706A1 (JIANGSU HENGRUI MEDICINE, published 2021).
